In the test the target is T1, S100A9 (alarmin) in autologous bone marrow plasma of MDS patients (human) (UniProt P06702).
T1 sequence (looked up): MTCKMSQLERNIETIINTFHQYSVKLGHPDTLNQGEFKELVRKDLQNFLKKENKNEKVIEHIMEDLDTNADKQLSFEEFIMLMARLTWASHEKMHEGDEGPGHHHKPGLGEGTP
Nature of the test: cell-based or functional assay.

As to “S100A9 high-affinity chimeric (CD33-IgG1) decoy receptor (from UniProt P20138 18-259) (Fc fusion)”, the reduction of the fraction of pyroptotic cells, CD33+ cells (MDS BM-MNC in autologous BM plasma, flow cytometry) was 68%; the reduction of the fraction of pyroptotic cells, CD71+ cells (MDS BM-MNC in autologous BM plasma, flow cytometry) was determined as 64%; the reduction of the fraction of pyroptotic cells, progenitor cells (MDS BM-MNC in autologous BM plasma, flow cytometry) stood at 23%; the reduction of the fraction of pyroptotic cells, stem cells (MDS BM-MNC in autologous BM plasma, flow cytometry) turned out to be 44%.

Source of the values: US20200150118A1.
